Assay results published in the supplement of paper PMC10567573.
± gives the standard deviation.

Assay: protein stability index of a GFP-peptide fusion (GPS, HEK-293T) (PSI 1-6); higher = more stable
[1] = treatment: DMSO, c terminus: a fixed tail appended
[2] = treatment: MLN4924 1 uM, 8 h, c terminus: a fixed tail appended
[3] = treatment: DMSO, c terminus: native
[4] = treatment: MLN4924 1 uM, 8 h, c terminus: native
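Note: 24-mer peptide tiles fused after GFP, lentivirally expressed, FACS-sorted into six equal bins by GFP/DsRed ratio, decoded by Illumina sequencing, PSI is the read-weighted mean bin number.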

| Sequence | protein stability index [1] | protein stability index [2] | protein stability index [3] | protein stability index [4] |
| --- | --- | --- | --- | --- |
| RPRGKERHKSGVHQPPQAGAGDVV [LYSMD4] | 5.07 ± 0.27 | 5.07 ± 0.057 |  |  |
| RQETVDCLKKFNARRKLKGAILTT [CAMK2A] | 3.15 ± 0.26 | 3.33 ± 0.24 |  |  |
| RQVPGSDPACYEFLWGPRALVETS [MAGEA3] | 3.11 ± 0.23 | 3.04 ± 0.37 |  |  |
| RRETVLFTDYGLAALAVNTSILSR [RNF208] | 2.09 ± 0.43 | 2.12 ± 0.18 |  |  |
| RRFNENAADRHINFCKEQAARISN [ZC2HC1A] | 2.56 ± 0.17 | 2.51 ± 0.39 |  |  |
| RRGIGGIFFDDLDSPSKEEVFRFV [CPOX] | 2.28 ± 0.2 | 2.64 ± 0.27 |  |  |
| RRKRTYWNDSCGEDMEASDYELED [WEE1] | 4.37 ± 0.3 | 4.92 ± 0.27 |  |  |
| RRPEVDPLPFPGPFPAGPLAVAGG [ESRRA] | 3.56 ± 0.21 | 3.71 ± 0.24 |  |  |
| RSGHTQTDYINASFMDGYKQKNAY [PTPN9] | 3.52 ± 0.2 | 3.61 ± 0.18 |  |  |
| RTELVEQAFRAIDRADYYLEEFKE [PCMTD2] | 4.1 ± 0.12 | 4.12 ± 0.19 |  |  |
| RTHINAVVAKIQAKIPGAKRHAE [RTN1] |  |  | 2.74 ± 0.25 | 3.04 ± 0.36 |
| RTMRLWNIEEIDEIPLVIKYKKAV [WDR88] | 2.3 ± 0.4 | 2.26 ± 0.31 |  |  |
| RTYRYSNRYCGGPGPPITDCEMNS [DYRK1B] | 2.67 ± 0.23 | 2.56 ± 0.11 |  |  |
| RVLMYGSELDADHPGFKDNVYRKR [TPH1] | 3.59 ± 0.11 | 3.8 ± 0.29 |  |  |
| RVYNNTLTYGEVRNSKASAYCLDQ [GALNT9] | 2.98 ± 0.16 | 3.07 ± 0.31 |  |  |
| RYIIFKRNTLNQPCSGSVSLQPRR [GMCL1] | 2.27 ± 0.22 | 2.36 ± 0.43 |  |  |
| RYRGRGSEEYRAPRPQSEESWDEE [CHGB] | 5.28 ± 0.51 | 5.34 ± 0.33 |  |  |
| SALEEAFRRFAVHGDARATGREMH [TPPP] | 3.22 ± 0.38 | 3.12 ± 0.12 |  |  |
| SDPDCSMRPTLIDLLPTFRHTLQK [FBXO39] | 3.33 ± 0.27 | 3.45 ± 0.28 |  |  |
| SDTIYSYVRPERLSPISHGNTIAL [TCF25] | 2.37 ± 0.22 | 2.56 ± 0.31 |  |  |
| SEDGSYGTDVTRCICGFTHDDGYM [KMT2E] | 3.33 ± 0.42 | 3.36 ± 0.34 |  |  |
| SEDWTMEERFRPLTFHGLILRSQL [CLCN6] | 2.32 ± 0.13 | 2.23 ± 0.18 |  |  |
| SEEQFRQRSPLGGDVLHAHLDIWK [SPDEF] | 3.34 ± 0.36 | 3.27 ± 0.1 |  |  |

| Sequence | protein stability index [1] | protein stability index [2] | protein stability index [3] | protein stability index [4] |
| --- | --- | --- | --- | --- |
| SEFQAALSRKVAKLVHFLLLKYRA [MAGEA6] | 2.45 ± 0.56 | 2.13 ± 0.29 |  |  |
| SEIRCDLERQNQEYQVLLDVKARL [KRT36] | 3.38 ± 0.19 | 3.34 ± 0.2 |  |  |
| SFLEQIMAPLQPSTSRAHKLPSRR [FAM189A2] | 2.8 ± 0.4 | 3.1 ± 0.3 |  |  |
| SFLQNAVLAYVQASPVRTLSPPK [LRRC45] |  |  | 2.3 ± 0.32 | 2.1 ± 0.18 |
| SFSRPADLDLIQSTPFKPLALKTP [MFF] | 3.19 ± 0.46 | 3.5 ± 0.048 |  |  |
| SFTLEEEEEGGEEEEEAAMYEEEM [FAM50A] | 5.47 ± 0.43 | 5.36 ± 0.2 |  |  |
| SGEEFYMLTRRVLQLETVLEGVVS [PKD2L1] | 2.17 ± 0.45 | 2.56 ± 0.17 |  |  |
| SGEVLNGAAVVRPPGHHAEQDAAC [HDAC6] | 5.32 ± 0.31 | 5.13 ± 0.14 |  |  |
| SGSGFGSVSWWGLSPALDLQAESP [DNAAF3] | 2.69 ± 0.56 | 2.43 ± 0.097 |  |  |
| SGWIFFYVPSSESFIIYLKNIVIA [P2RY14] | 3.26 ± 0.53 | 3.09 ± 0.88 |  |  |
| SHDPQSSRGSRRRRRQRSEKKKAH [KCNA4] | 5.38 ± 0.53 | 5.38 ± 0.23 |  |  |
| SIDKDEEFAGSSPQSSKSTVVKSL [FAN1] | 5.165 ± 0.042 | 5.27 ± 0.27 |  |  |
| SKAPVLTYGQPKQAPPADFIPAHV [EFHC1] | 3.93 ± 0.18 | 4.1 ± 0.25 |  |  |
| SKGQPRSQEESEEGEEDATSEVDK [CHGB] | 5.59 ± 0.21 | 5.4 ± 0.19 |  |  |
| SKIDALSSEKLNLQKDLETRPTQH [CEP70] | 4.71 ± 0.29 | 4.71 ± 0.073 |  |  |
| SKIGSTDNIKYQPKGGQVQIVTKK [MAP2] | 4.37 ± 0.17 | 4.63 ± 0.18 |  |  |
| SKRLYGVYDNEKKLQLQLNETKSQ [PLD5] | 4.19 ± 0.27 | 4 ± 0.18 |  |  |
| SKSLMTSVPMNGTSIQWKNHDQNN [EDNRA] | 4.25 ± 0.045 | 4.41 ± 0.18 |  |  |
| SKYGIINLQSLKTPTLKVFMHENL [DCAF4] | 1.8 ± 0.43 | 2.03 ± 0.26 |  |  |
| SLAIFSEELDGLCFKGELPLRAVH [PLEKHN1] | 2.42 ± 0.13 | 2.46 ± 0.43 |  |  |
| SLELDKMAHGYGEESEEERGLEPG [CHGB] | 5.49 ± 0.46 | 5.41 ± 0.19 |  |  |
| SLGIELHCNVSNILHMNGSQSSTY [ZNF396] | 2.18 ± 0.38 | 2.16 ± 0.27 |  |  |
| SLHPESGQENDATSPHFSTRHEGS [CD69] | 5.4 ± 0.23 | 5.33 ± 0.14 |  |  |

| Sequence | protein stability index [1] | protein stability index [2] | protein stability index [3] | protein stability index [4] |
| --- | --- | --- | --- | --- |
| SLKFKSRVPQTWSKRLYGVYDNEK [PLD5] | 2.55 ± 0.39 | 2.71 ± 0.74 |  |  |
| SLLGEPCAGPGFTHNIAHGSLGFE [SPAG8] | 3.03 ± 0.45 | 2.92 ± 0.4 |  |  |
| SLLPGAVEQPQPQFISRFLEGQSG [NEK8] | 3.5 ± 0.18 | 3.73 ± 0.16 |  |  |
| SLQPRRSIAFRLRLASFDSSGKLI [GMCL1] | 2.62 ± 0.44 | 2.39 ± 0.27 |  |  |
| SLTDISQPTIVEALLGYEMVQVAC [NEK8] | 2.73 ± 0.64 | 2.4 ± 0.5 |  |  |
| SNFYTVAVTSLSSQIQYMNTVVST [TMEM106C] | 3.13 ± 0.59 | 3.11 ± 0.49 |  |  |
| SNITSETGFRTISSLEEIVEKQGD [TMEM192] | 5.44 ± 0.19 | 5.35 ± 0.15 |  |  |
| SNIVIMLVGNKSDLRHLRAVPTDE [RAB11A] | 2.42 ± 0.34 | 2.25 ± 0.28 |  |  |
| SNKKMLLLVGGLPPGPDRLPSNLV [KLHL14] | 2.17 ± 0.19 | 2.34 ± 0.22 |  |  |
| SPELQEEFGYNAETQKLLCKNGET [ARFIP2] | 5.31 ± 0.29 | 5.46 ± 0.11 |  |  |
| SPICLSTSLSLAQVGAKGDTANEI [SERPINB5] | 4.68 ± 0.15 | 4.54 ± 0.21 |  |  |
| SPNFDGWFKTRRKEMTQKLEALHL [DENND6A] | 2.91 ± 0.18 | 3.2 ± 0.41 |  |  |
| SQGNFEGNFESLDLAEFAKKQPWW [FUNDC2] | 3.63 ± 0.27 | 3.63 ± 0.46 |  |  |
| SQLDEDEHGLHTKYIHRMMQIEFI [TRAF3IP2] | 2.44 ± 0.1 | 2.56 ± 0.34 |  |  |
| SQSPRAAGPREGHSHSHHHHHRG [PBXIP1] |  |  | 3.02 ± 0.69 | 4.03 ± 0.49 |
| SQSWHTESLPVSLGPESWQQIAMD [BCL2L13] | 3.79 ± 0.24 | 3.93 ± 0.23 |  |  |
| SQVTATSGNGDFGDWSAFNQAPSG [CLINT1] | 4.59 ± 0.068 | 4.36 ± 0.21 |  |  |
| SRIQEWYEFQIPYICPDYQSYFKT [KRT36] | 2.29 ± 0.31 | 2.17 ± 0.36 |  |  |
| SRPQSSRPVLLSKIEGHQDAVTAA [WDFY1] | 4.28 ± 0.33 | 4.3 ± 0.35 |  |  |
| SRRDESYSRGYRNRRSSRETREYA [RBMY1A1] | 4.5 ± 0.32 | 4.64 ± 0.31 |  |  |
| SRRSGKTSAVLKAGRQSVSGRKNS [C6orf223] | 4.64 ± 0.28 | 4.78 ± 0.25 |  |  |
| SRTTCLFLHLRTHTEERPYECNHC [ZNF8] | 2.62 ± 0.45 | 2.8 ± 0.43 |  |  |
| SRVTMILFVLELEWVLSTGQDKQF [WDFY2] | 3.1 ± 0.31 | 3.09 ± 0.66 |  |  |

| Sequence | protein stability index [1] | protein stability index [2] | protein stability index [3] | protein stability index [4] |
| --- | --- | --- | --- | --- |
| SSFLSFAELFSYVLQDRAAKGSLG [FEM1A] | 2.58 ± 0.35 | 2.55 ± 0.81 |  |  |
| SSISHRFHKDCASRVNNASYCPHC [EHMT1] | 3.48 ± 0.67 | 4.11 ± 0.56 |  |  |
| SSITEAVPSESEPPALQNNLLSPL [NFE2L1] | 4.75 ± 0.12 | 4.75 ± 0.21 |  |  |
| SSKVSGVLKKLAQSRRTALATSPI [YJU2B] | 2.94 ± 0.22 | 3 ± 0.26 |  |  |
| SSSSFDPSVFDGLGDLLMPTMAPA [SNAP91] | 3.55 ± 0.25 | 3.72 ± 0.33 |  |  |
| SVDGLTLSPDPEERPGAEGAPLLP [ACBD3] | 5.46 ± 0.19 | 5.54 ± 0.18 |  |  |
| SVNFDGETIEGAPPLWAASAAGHL [FEM1C] | 3.52 ± 0.23 | 3.6 ± 0.23 |  |  |
| SVNSDCETYMSADDLRINLWHLAI [PPP2R2C] | 2.52 ± 0.54 | 2.29 ± 0.21 |  |  |
| SVRISFAKGWGPCYSRQFITSCPC [SMAD6] | 2.79 ± 0.67 | 2.78 ± 0.85 |  |  |
| SVSVWDLAAPSLHVKEQLPCAGLN [TLE6] | 2.91 ± 0.2 | 3.08 ± 0.3 |  |  |
| SYAHSVEDTHVQIGQVHEEFKQNI [FCHO1] | 4.55 ± 0.25 | 4.7 ± 0.081 |  |  |
| SYRTESAQRQACMYASSAPPSEPV [TBX5] | 3.79 ± 0.16 | 4.07 ± 0.24 |  |  |
| TATCTTNNNPNSCVNIKKIFTDV [KCNA3] |  |  | 4.08 ± 0.24 | 3.97 ± 0.11 |
| TDAFLDRPPTPLFIPAKTGKDVAT [RSPH3] | 4.58 ± 0.18 | 4.6 ± 0.22 |  |  |
| TDHILESLYRDIRDIQDENQLLVA [STX11] | 3.22 ± 0.3 | 3.24 ± 0.39 |  |  |
| TDRSFNIVDIKPANMEDLTEVITA [PPP2R2C] | 4.42 ± 0.14 | 4.37 ± 0.15 |  |  |
| TEDIQTRQYRSIEVLIGAGYSTPA [SRPK2] | 2.94 ± 0.4 | 2.87 ± 0.5 |  |  |
| TEKKQTKVEFPEARIYEETLNILL [KCTD10] | 2.12 ± 0.1 | 2.23 ± 0.33 |  |  |
| TELPELLKLYYRRLFPYSQYYRWL [PRIM1] | 2.93 ± 0.79 | 2.47 ± 0.67 |  |  |
| TEPWGGTAIRPLKILPWSPEKIGT [PNLIPRP1] | 3.45 ± 0.26 | 3.65 ± 0.36 |  |  |
